Data: patent publication US20190153111A1 (Novartis, published 2019)
Several values for one entry are separate records, joined by “and”; a condition that tells them apart may be missing. Equal entries are not always repeated.

Columns and labels:
Experiment in all cases: cell-based or functional assay
human CD40 on cells [1] = target: T1, human CD40 on cells (human, UniProt P25942 21-277)
human CD40 on cells [2] = target: T1, human CD40 on cells; remark: listed apart in the source
human CD40 on cells [3] = target: T1, human CD40 on cells; remark: listed apart in the source
[4] = target: cynomolgus monkey CD40 on cells (cynomolgus, UniProt G7PG38 21-278)
[5] = target: rhesus monkey CD40 on cells (rhesus, UniProt F6SNI1 21-278)

T1 sequence (P25942 21-277 limits assumed): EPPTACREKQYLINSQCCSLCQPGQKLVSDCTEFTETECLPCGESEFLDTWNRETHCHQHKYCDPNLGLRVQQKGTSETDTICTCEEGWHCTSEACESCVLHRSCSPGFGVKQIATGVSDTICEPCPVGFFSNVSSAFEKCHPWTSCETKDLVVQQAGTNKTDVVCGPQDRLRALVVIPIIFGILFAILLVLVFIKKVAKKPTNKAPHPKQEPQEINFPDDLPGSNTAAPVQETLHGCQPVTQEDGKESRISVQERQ

B1: CFZ533 (antibody, human IgG1, kappa, N297A)
heavy: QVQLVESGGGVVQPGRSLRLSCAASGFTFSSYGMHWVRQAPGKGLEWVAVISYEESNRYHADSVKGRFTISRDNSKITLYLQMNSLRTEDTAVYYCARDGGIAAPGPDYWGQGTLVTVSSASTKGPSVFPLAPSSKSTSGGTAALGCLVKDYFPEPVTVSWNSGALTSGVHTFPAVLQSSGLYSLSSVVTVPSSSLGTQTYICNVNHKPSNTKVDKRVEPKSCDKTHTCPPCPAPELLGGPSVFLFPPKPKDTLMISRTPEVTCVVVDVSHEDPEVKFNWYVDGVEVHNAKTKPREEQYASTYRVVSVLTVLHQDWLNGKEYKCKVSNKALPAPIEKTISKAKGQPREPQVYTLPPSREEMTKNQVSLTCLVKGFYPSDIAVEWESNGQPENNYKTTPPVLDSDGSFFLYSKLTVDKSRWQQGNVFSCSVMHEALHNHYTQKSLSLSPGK
light: DIVMTQSPLSLTVTPGEPASISCRSSQSLLYSNGYNYLDWYLQKPGQSPQVLISLGSNRASGVPDRFSGSGSGTDFTLKISRVEAEDVGVYYCMQARQTPFTFGPGTKVDIRRTVAAPSVFIFPPSDEQLKSGTASVVCLLNNFYPREAKVQWKVDNALQSGNSQESVTEQDSKDSTYSLSSTLTLSKADYEKHKVYACEVTHQGLSSPVTKSFNRGEC
- IC50, inhibition of rCD154-induced TNF production by primary monocyte-derived dendritic cells (human CD40 on cells [1]): 0.04 µg/ml and 0.27 nM
- IC50, inhibition of rCD154-induced proliferation of human PBMCs (human CD40 on cells [1]): 0.12 nM
- IC50, inhibition of rCD154-induced proliferation of human whole blood cultures (human CD40 on cells [1]): 0.024 µg/ml and 0.16 nM
- IC50, inhibition of rCD154-induced proliferation of purified human tonsillar B cells (human CD40 on cells [1]): 0.071 µg/ml and 0.47 nM
- IC50 (read off the curve): inhibition of rCD154-induced CD69 expression on CD20pos B cells, human whole blood (human CD40 on cells [2]): ~0.1 µg/mL
- Inhibition of rCD154-induced proliferation (IC50 PBMCs), human (human CD40 on cells [3]): 0.017 µg/ml and 0.12 µM
- Inhibition of rCD154-induced proliferation (IC50 PBMCs), cynomolgus [4]: 0.01 µg/ml and 0.07 µM
- Inhibition of rCD154-induced proliferation (IC50 PBMCs), rhesus [5]: 0.026 µg/ml and 0.18 µM
